What was measured:
Fur (Bacillus subtilis) [1] = target: T1, Fur (Bacillus subtilis) (UniProt P54574); experiment: EMSA; conditions: EMSA with 1 mM MnCl2; ~1 fmol 32P-labelled probe (B, C) or ~180 ng DNA with ethidium bromide stain, 5% native PAGE (A); remaining buffer, pH and temperature …
T1 sequence: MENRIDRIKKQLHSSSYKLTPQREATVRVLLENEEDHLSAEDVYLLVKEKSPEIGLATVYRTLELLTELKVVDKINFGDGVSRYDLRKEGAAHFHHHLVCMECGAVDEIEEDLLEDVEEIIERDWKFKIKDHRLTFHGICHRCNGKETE

Fur (Bacillus subtilis) [2] = experiment: EMSA; conditions: EMSA with 1 mM MnCl2; ~1 fmol 32P-labelled probe (B, C) or ~180 ng DNA with ethidium bromide stain, 5% native PAGE (A); remaining buffer, pH and temperature …

## TAGACCTTTGTCCTGCACAGAGGTCTTTTTTTGTTACAGTTTTATAGTACTTTTATTTCATTTTCGTAAAATGTAACAAAATTACTTGACGTAAACAAGTTATGTATATATACTAGCTTACATTAAGTAAGTGATAACATTTATCAAGGAGGATAAAATGAATAAATCATTTGAAATTGGCACATTACTTTTAAGAG (double strand) [catD promoter probe (-121 to +76)]
Fur (Bacillus subtilis) [1]
  Kd: 700 nM

## catD ORF 218-bp HindIII fragment (+169 to +386)
Fur (Bacillus subtilis) [2]
  binding: > 3 µM

## catD ORF probe (+137 to +278)
Fur (Bacillus subtilis) [2]
  binding: > 2 µM

## catD promoter 323-bp HindIII fragment (-155 to +168)
Fur (Bacillus subtilis) [2]
  K half: 500 nM

## catD promoter probe (-121 to +76)
Fur (Bacillus subtilis) [2]
  Kd: 700 nM

From article PMC6212828
